Biological target: FKBP_C-term (FKBP fused at its C-terminal end to the C-terminal NanoLuc fragment N2)
Assay: split reporter

## FRB_N-term (FRB fused at its C-terminal end to the N-terminal NanoLuc fragment N1)
  luminescence without rapamycin as percent of that with rapamycin: 3%
